Results as given in article PMC4031069 (Nature materials, 2014).

Target: monomeric biotinylated FN7-10 (biotin (biotinylated; site not stated))
Assay: SPR

B1: purified recombinant human αvβ6 integrin (receptor)
chain 1: FNLDVDSPAEYSGPEGSYFGFAVDFFVPSASSRMFLLVGAPKANTTQPGIVEGGQVLKCDWSSTRRCQPIEFDATGNRDYAKDDPLEFKSHQWFGASVRSKQDKILACAPLYHWRTEMKQEREPVGTCFLQDGTKTVEYAPCRSQDIDADGQGFCQGGFSIDFTKADRVLLGGPGSFYWQGQLISDQVAEIVSKYDPNVYSIKYNNQLATRTAQAIFDDSYLGYSVAVGDFNGDGIDDFVSGVPRAARTLGMVYIYDGKNMSSLYNFTGEQMAAYFGFSVAATDINGDDYADVFIGAPLFMDRGSDGKLQEVGQVSVSLQRASGDFQTTKLNGFEVFARFGSAIAPLGDLDQDGFNDIAIAAPYGGEDKKGIVYIFNGRSTGLNAVPSQILEGQWAARSMPPSFGYSMKGATDIDKNGYPDLIVGAFGVDRAILYRARPVITVNAGLEVYPSILNQDNKTCSLPGTALKVSCFNVRFCLKADGKGVLPRKLNFQVELLLDKLKQKGAIRRALFLYSRSPSHSKNMTISRGGLMQCEELIAYLRDESEFRDKLTPITIFMEYRLDYRTAADTTGLQPILNQFTPANISRQAHILLDCGEDNVCKPKLEVSVDSDQKKIYIGDDNPLTLIVKAQNQGEGAYEAELIVSIPLQADFIGVVRNNEALARLSCAFKTENQTRQVVCDLGNPMKAGTQLLAGLRFSVHQQSEMDTSVKFDLQIQSSNLFDKVSPVVSHKVDLAVLAAVEIRGVSSPDHVFLPIPNWEHKENPETEEDVGPVVQHIYELRNNGPSSFSKAMLHLQWPYKYNNNTLLYILHYDIDGPMNCTSDMEINPLRIKISSLQTTEKNDTVAGQGERDHLITKRDLALSEGDIHTLGCGVAQCLKIVCQVGRLDRGKSAILYVKSLLWTETFMNKENQNHSYSLKSSASFNVIEFPYKNLPIEDITNSTLVTTNVTWGIQPAPMPV
chain 2: GCALGGAETCEDCLLIGPQCAWCAQENFTHPSGVGERCDTPANLLAKGCQLNFIENPVSQVEILKNKPLSVGRQKNSSDIVQIAPQSLILKLRPGGAQTLQVHVRQTEDYPVDLYYLMDLSASMDDDLNTIKELGSRLSKEMSKLTSNFRLGFGSFVEKPVSPFVKTTPEEIANPCSSIPYFCLPTFGFKHILPLTNDAERFNEIVKNQKISANIDTPEGGFDAIMQAAVCKEKIGWRNDSLHLLVFVSDADSHFGMDSKLAGIVIPNDGLCHLDSKNEYSMSTVLEYPTIGQLIDKLVQNNVLLIFAVTQEQVHLYENYAKLIPGATVGLLQKDSGNILQLIISAYEELRSEVELEVLGDTEGLNLSFTAICNNGTLFQHQKKCSHMKVGDTASFSVTVNIPHCERRSRHIIIKPVGLGDALELLVSPECNCDCQKEVEVNSSKCHHGNGSFQCGVCACHPGHMGPRCECGEDMLSTDSCKEAPDHPSCSGRGDCYCGQCICHLSPYGNIYGPYCQCDNFSCVRHKGLLCGGNGDCDCGECVCRSGWTGEYCNCTTSTDSCVSEDGVLCSGRGDCVCGKCVCTNPGASGPTCERCPTCGDPCNSKRSCIECHLSAAGQAREECVDKCKLAGATISEEEDFSKDGSVSCSLQGENECLITFLITTDNEGKTIIHSINEKDCPKPPNIP
B1 was tested, and the “kont relative to α5β1” value was roughly 0.5 fold.
